Measurements as given in the supplement of paper PMC7125110.
± gives the standard error. Variants at the floor of the assay were thinned out.

B1: glmS ribozyme (parent)
chain: AUAAAAGCGCCAGAACUACAGAAAUGUAGUUGACGAGGAGGAGGUUUAUCGAAUUUUCGGCGGAUGCCUCCAAA

Experiments:
Conditions in all cases: with glucosamine-6-phosphate
glucosamine-6-phosphate [1] = variants of: B1; experiment: self-cleavage kobs at 40 uM GlcN6P; higher = faster cleavage; RNA array
Outline: (§1)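 Weighted Michaelis–Menten fits across concentrations supplied kcat and KM, based on kobs from one- or two-exponential decay fits to normalised per-tile medians. The data came from barcoded ribozyme variants transcribed in situ by E. coli RNA polymerase on sequenced MiSeq chips and tracked at 37 °C by a hybridised Cy3 probe. Glucosamine-6-phosphate (40 μM to 10 mM) in HEPES/KCl/Mg(OAc)2 buffer was flowed in.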

glucosamine-6-phosphate [2] = variants of: B1; experiment: self-cleavage kobs at 640 uM GlcN6P; higher = faster cleavage; RNA array
Outline: as §1

glucosamine-6-phosphate [3] = variants of: B1; experiment: self-cleavage kobs at 10000 uM GlcN6P; higher = faster cleavage; RNA array
Outline: as §1

glucosamine-6-phosphate [4] = variants of: B1; experiment: self-cleavage kobs at 160 uM GlcN6P; higher = faster cleavage; RNA array
Outline: as §1

glucosamine-6-phosphate [5] = variants of: B1; experiment: self-cleavage kobs at 2500 uM GlcN6P; higher = faster cleavage; RNA array
Outline: as §1

| Variant | self-cleavage kobs at 40 uM GlcN6P (glucosamine-6-phosphate [1]) [s⁻¹] | self-cleavage kobs at 640 uM GlcN6P (glucosamine-6-phosphate [2]) [s⁻¹] | self-cleavage kobs at 10000 uM GlcN6P (glucosamine-6-phosphate [3]) [s⁻¹] | self-cleavage kobs at 160 uM GlcN6P (glucosamine-6-phosphate [4]) [s⁻¹] | self-cleavage kobs at 2500 uM GlcN6P (glucosamine-6-phosphate [5]) [s⁻¹] |
| --- | --- | --- | --- | --- | --- |
| AUAAAAGCGCCAGACCUACAGAAAUGUAGUUGACAAGGAGGAGGUUUAUCAAAUUUUCGGCGGAUGCAUCCAAA [A15C G35A G51A C68A] | < 1e-05 | < 1e-05 | < 1e-05 |  |  |
| AUAAAAGCGCCAGAGCUACAGAAAUGUAGUUAACGAGGAGGAGGUUUAUCGAAUUUUCGGCGGAUGCCUCCAAA [A15G G32A] | 6.35e-05 ± 1.4e-05 | 0.000628 ± 7.7e-05 | 0.00311 ± 0.00077 | 0.000114 ± 2.3e-05 | 0.00103 ± 0.00018 |
| AUAAAAGCGCCAGAGCUACAUAAAUGUAGUUGGCGAGGAGGAGGUUUAUCGAAUUUUCGGCGGAUGCCUCCAAA [A15G G21U A33G] | < 1e-05 |  | < 1e-05 |  |  |
| AUAAAAGCGCCAGACAUACAGAAAUGUAGUGGACGGGGGGGCGGUUUAUCGAAUUUUCGGCGGAUGCCUCCAAA [A15C C16A U31G A36G A39G A42C] | < 1e-05 |  |  |  | < 1e-05 |
| AUAAAAGCGCCAGACCUACAGAAAUGUAGUUGACUAGGAGGAGGUUUAUCGAAUUUUCGGCGGAUGCCUCCAAA [A15C G35U] | < 1e-05 | < 1e-05 |  | < 1e-05 | < 1e-05 |
| AUAAAAGCGCCAGAGCUACAGAAAUGUAAUUGACGAGGAGGAGGUUUAUCGAAUGUUCGGCGGAUGCCUCCAAA [A15G G29A U55G] | 5.71e-05 ± 1.7e-05 |  | 0.00317 ± 0.00043 |  |  |
| AUAAAAGCGCCAGACCUACAGAAAUGUAGUUGACGAGGAGUAGGUUUAUCGAAUUUUCGGCGGAUGCCUACAAA [A15C G41U C70A] | 0.000696 ± 0.00013 |  |  |  |  |
| AUAAAAGCGCCAGAGCUACAGAAAUGUAGUUCACGAGGAGAAGGUUUAUCGAAUUUUCGGCGGAUGCCUACAAA [A15G G32C G41A C70A] | < 1e-05 |  |  |  |  |
| AUAAAAGCGCCAGAGCUACAGAAAUGUAGUUGGCGAGGAGCAGGUUUAUCGAAUUUUCGGCGGAUGCCUCCAAA [A15G A33G G41C] | < 1e-05 |  | < 1e-05 |  |  |
| AUAAAAGCGCCAGAGCUACAGAAAUGUAGUUGACGAGGAGGAGGUUUUUCGAAUCUUCGGCGGAUGCCUCCAAA [A15G A48U U55C] | < 1e-05 |  | 0.000412 ± 8.4e-05 |  |  |
| AUAAAAGCGCCAGACCUACAGAAAUGUAGUUGACGAGAAGGAGGUUUAUCGAAUUUUCGGCGGAUGGCUCCAAA [A15C G38A C67G] | < 1e-05 |  |  |  |  |
| AUAAAAGCGCCAGAGCUACAGAAAUGUAGUUGACGAGGAGGAGGUUUAUCGAAUUUUCGGCGGAUGCCUACAAA [A15G C70A] | 5.87e-05 ± 7.8e-06 | 0.000211 ± 2.2e-05 | 0.00111 ± 0.00023 | 9.45e-05 ± 1.1e-05 | 0.000382 ± 4e-05 |
| AUAAAAGCGCCAGAGCUACAGAAAUGUAGUUGACGAGGAGGAGGUUUAUCGAAUUUUCGGCGGAUGCCUUCAAA [A15G C70U] | 0.00115 ± 0.00011 | 0.0045 ± 0.00057 | 0.0598 ± 0.012 | 0.00217 ± 0.00032 | 0.0168 ± 0.0062 |
| AUAAAAGCGCCAGAGCUACAGAAAUGUAGUUGACGAGGAGGAGGUUUAUCGAAUUUUCGGCGGAUGCCUCUAAA [A15G C71U] | 0.00111 ± 0.0001 | 0.00696 ± 0.0013 | 0.0519 ± 0.014 | 0.00193 ± 0.00039 | 0.0534 ± 0.021 |
| AUAAAAGCGCCAGACCUACAGAAAUGUAGUUGACGAGGAGGAUGUUUAUCGAACUUUCGGCGGAUGCCUCCAAA [A15C G43U U54C] | < 1e-05 |  | < 1e-05 |  |  |
| AUAAAAGCGCCAGACCUACAGAAAUGUAGUUGACGAGCAGGAGGUUUAUCGGAUUUUCGGCGGAUGCCUCCAAA [A15C G38C A52G] | < 1e-05 |  |  |  | < 1e-05 |
| AUAAAAGCGCCAGAGCUACAGAAAUGUAGUUGACGAGGAGGAGGUUUAUAGAAUUUUCGGCGGAUGCCUCCAAA [A15G C50A] | < 1e-05 |  | 3.83e-05 ± 1.4e-05 |  |  |
| AUAAAAGCGCCAGAGCUACAGAAAUGUAGUUGAUGAGGAGGAGGUUUAUCGAAUUUUCGGCGGAUGCCUCCAAA [A15G C34U] | < 1e-05 | < 1e-05 | < 1e-05 | < 1e-05 | < 1e-05 |
| AUAAAAGCGCCAGAGCUACAGAAAUGUAGUUGACGAGGAGGGGGUUUAUCGAGUUUUCGGCGGAUGCCUCCAAA [A15G A42G A53G] | 0.00166 ± 0.00034 | 0.00796 ± 0.003 |  |  |  |
| AUAAAAGCGCCAGACCUACAGAAAUGUAGUUGACGAGGAGGAGGUUUAUCGAAUUUUCGGCGGAUGCCUCAAAA [A15C C71A] | 3.98e-05 ± 9.4e-06 | 0.000136 ± 5.9e-05 | 0.00151 ± 0.00019 | 8.22e-05 ± 3.4e-05 | 0.000291 ± 7.5e-05 |
| AUAAAAGCGCCAGACCUACAGAAAUGUAGUUGACGAGGAGGAGGUUUAUGGAGUUUUCGGCGGAUGCCUCCAAA [A15C C50G A53G] | 7e-05 ± 2.9e-05 |  |  |  |  |
| AUAAAAGCGCCAGAGCUACAGAAAUGUAGUUGACAAGGAGGAGGUUUAUCGAAUUUUCGGCGGAUGCCUCCAAA [A15G G35A] | < 1e-05 |  | < 1e-05 | < 1e-05 |  |
| AUAAAAGCGCCAGAGCUACAGAAAUGUAGUUGUCGAGGAGGAGGUUUAUCGAAUUUUCGGCGGAUGCCUCUAAA [A15G A33U C71U] | < 1e-05 |  | 5.87e-05 ± 1.3e-05 |  |  |
| AUAAAAGCGCCAGACUUACAGAAAUGUAGUUGACGAGGAGGAGGUUUAUCGAAUUUACGGCGGAUCCCUCCAAA [A15C C16U U57A G66C] | < 1e-05 |  | < 1e-05 |  |  |
| AUAAAAGCGCCAGAGCUACAGAAAUGUAGUUGACGCGGAGGAGGUUUAUCGAAUUUUCGGCGGAUGCGUCCAAA [A15G A36C C68G] | 6.45e-05 ± 2.9e-05 |  |  |  |  |
| AUAAAAGCGCCAGACCUACAGAAAUGUAGUUGACGAGGAGGAGGUUUAUCGAAUUUCCGGCGGAUGCCUCCAAA [A15C U57C] | < 1e-05 |  | 5.67e-05 ± 6.7e-06 |  |  |
| AUAAAAGCGCCAGACCUACAGAAAUGUAGUUGACGAGGAGGAGGUUUAACGAAUUUUCGGCGGAUGCCUCCAAA [A15C U49A] | < 1e-05 | < 1e-05 | < 1e-05 |  |  |
| AUAAAAGCGCCAGACCUACAGAAAUGUAGUUGACGAGGAGGAGGUUUAUCGAAUUUUCUGCGGAUGCCUCCAAA [A15C G59U] | < 1e-05 | < 1e-05 |  | < 1e-05 |  |
